Columns and labels:
[1] = Platelet count, leukocyte count and bleeding time after LMWH reversal at different rates, canine study; assay type: in vivo, dogs
Procedure: The anticoagulation-reversing agents were administered rapidly over 10 seconds to maximize hemodynamic effects or more slowly over a 3 minute interval. Changes in LMWH anticoagulation occurring from metabolism alone were determined in a separate group of dogs not given any reversal agent.

[2] = Hemodynamic studies and total toxicity score after standard heparin reversal at different rates, dogs
Procedure: Hemodynamic studies were conducted by measuring mean arterial pressure (MAP) in mm Mercury, maximum percent changes in cardiac output (CO) and systemic oxygen consumption (VO2), and heart rate (HR) in beats per minute. Measurements and calculations were made at baseline, before LMWH administration, 3 minutes before reversal, every 30 seconds for 5 minutes after reversal.
TTS were developed that reflected maximum declines in each of four parameters (MAP, CO, VO2 and HR) over the first 5 minutes after reversal in the same manner as described hereinabove.

[3] = Platelet and white cell counts after standard heparin reversal, canine study; assay type: in vivo; details: dogs, 3 minutes post-reversal, resolved by about 30 minutes
Procedure: Anticoagulation reversal was assessed by a number of standard coagulation tests performed upon samples of venous blood: activated clotting time (ACT), prothrombin time (PT), activated partial thromboplastin time (aPTT), thrombin clotting time (TCT), heparin concentration by assay for FXa inhibitory activity (FXa), white cell count (WBC), and platelet counts (PLT). Measurements were made 3 minutes prior to heparin reversal (baseline) and 3 minutes and 30 minutes post-administration of the heparin reversal agent. The "Heparin" row sets forth the observed reversal as a consequence of expected heparin metabolism or degradation alone.

[4] = Hemodynamic studies and total toxicity score after standard heparin reversal, canine study; details: dogs
Procedure: As used hereinafter, the peptides will be identified by their total cationic charge value, e.g., [+8], [+16], etc.
Hemodynamic studies were conducted by measuring mean arterial pressure (MAP), heart rate (HR), and maximum percent changes in cardiac output (CO) and systemic oxygen consumption (VO2).
Total toxicity scores (TTS) were developed that reflected maximum declines in each of four parameters (MAP, CO, VO2 and HR) over the first 5 minutes after reversal, the latter being the time of expected greatest adverse hemodynamic effect. The maximum changes occurring in an individual dog over the first 5 minutes were divided by the standard deviation derived from the entire group of tested animals and the four scores were added, resulting in a TTS for each individual dog. The TTS values for each dog were then summed to obtain an average TTS and SD for each peptide studied.

[5] = system: standard, unfractionated heparin; experiment: Factor Xa and IIa reversal after standard heparin, cell adhesion ligand analogs, canine study; assay type: in vivo; details: dogs, 3 min post administration
Procedure: Anticoagulation reversal was assessed by a number of standard coagulation tests performed upon samples of venous blood in the manner described hereinabove. Measurements were made 3 minutes prior to heparin reversal (baseline) and 3 minutes, 10 minutes, and 30 minutes post-administration of the heparin reversal agent. […] Referring to FIGS. 4a through 4d, compound [+18RGD] performs as well, or better, than n-protamine in the standard coagulation tests performed in these studies.

[6] = dogs, Logiparin, administered over 3 min

PR4 S3 RPVR5 PRVSR6 G2 R4 [Protamine [+21], reference compound]
Maximal decline in leukocyte count ([1]; dogs, Logiparin, administered over 10 sec): -3% | Maximal decline in leukocyte count [1, 6]: -26% | Maximal thrombocytopenia [1, 6]: -32% | bleeding time ([1]; selected animals, given over a 3 minute interval): ≤ 8 min | Total Toxicity Score ([2]; administered over 10 sec): -7.1 ± 4.63 | Total Toxicity Score ([2]; administered over 3 min): -5.66 ± 4.04 | platelet counts [3]: thrombocytopenia | ΔHR [4]: -29 | ΔMAP ([4]; average maximum decline in first five minutes after peptide administration): -34 | average total toxicity score (TTS±SD) ([4]; first 5 minutes after reversal, more negative = more toxic): -7.0±5.2 | ΔCO ([4]; maximum percent change): -38% | ΔVO2 ([4]; maximum percent change): -35% | IIa Reversal [5]: 98% | Xa Reversal [5]: 99%

From US5919761A, “Peptides for heparin and low molecular weight heparin anticoagulation reversal” (The Board of Regents of the University of Michigan, priority 1995, dated 1999)
